Literature values, collected in paper PMC9849996.

Target: ROS-GC1 (Bos taurus) (UniProt P55203)
Assay: SPR; given as Ka

Chain of UniProt P55203 (P55203 57-1110): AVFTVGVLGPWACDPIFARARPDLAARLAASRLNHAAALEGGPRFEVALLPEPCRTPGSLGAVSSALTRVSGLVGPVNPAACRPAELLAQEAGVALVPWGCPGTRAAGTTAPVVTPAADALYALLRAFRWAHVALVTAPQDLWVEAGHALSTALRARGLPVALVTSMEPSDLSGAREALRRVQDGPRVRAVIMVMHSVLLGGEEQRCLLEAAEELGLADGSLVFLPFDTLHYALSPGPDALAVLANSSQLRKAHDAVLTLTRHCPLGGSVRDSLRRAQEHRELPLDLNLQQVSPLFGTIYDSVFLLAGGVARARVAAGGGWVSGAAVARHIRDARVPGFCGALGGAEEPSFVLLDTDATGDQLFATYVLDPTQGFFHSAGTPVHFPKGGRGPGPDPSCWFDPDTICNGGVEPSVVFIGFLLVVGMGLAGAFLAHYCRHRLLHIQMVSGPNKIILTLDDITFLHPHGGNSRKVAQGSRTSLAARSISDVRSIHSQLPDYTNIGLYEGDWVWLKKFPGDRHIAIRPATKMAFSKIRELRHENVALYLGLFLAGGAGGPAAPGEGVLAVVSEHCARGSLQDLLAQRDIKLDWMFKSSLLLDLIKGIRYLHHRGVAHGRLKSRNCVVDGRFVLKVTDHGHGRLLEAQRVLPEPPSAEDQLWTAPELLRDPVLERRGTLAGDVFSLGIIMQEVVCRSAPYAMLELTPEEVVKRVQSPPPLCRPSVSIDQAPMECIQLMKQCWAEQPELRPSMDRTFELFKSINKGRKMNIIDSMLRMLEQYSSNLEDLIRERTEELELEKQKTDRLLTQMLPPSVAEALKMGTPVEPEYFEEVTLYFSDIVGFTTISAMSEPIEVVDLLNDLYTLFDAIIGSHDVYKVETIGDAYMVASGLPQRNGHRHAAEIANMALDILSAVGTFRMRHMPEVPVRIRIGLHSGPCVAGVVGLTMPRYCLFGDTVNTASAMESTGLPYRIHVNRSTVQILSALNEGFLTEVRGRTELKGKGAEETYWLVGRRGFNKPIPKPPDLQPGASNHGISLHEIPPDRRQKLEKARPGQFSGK

For frequenin (from UniProt Q2V8Y7), the Kd is given as 426 nM.
